Some results are limits rather than exact numbers.

The target in this assay is purified native poly-γ-D-glutamic acid (γDPGA) from B. licheniformis strain 9945 (B. licheniformis). The experiment in a line: ELISA. Background: An ELISA detects its analyte on a solid surface through an enzyme-linked reagent.
In turn, “mAb F24F2 IgG1 subclass switch variant (antibody)” gave a fold more mAb required for OD450 = 2.0 than with the IgG3 subclass above 15 fold.

Take “mAb F24F2 IgG2a subclass switch variant (antibody)”: the fold more mAb required for OD450 = 2.0 than with the IgG3 subclass is above 15 fold.

In turn, “mAb F24F2 IgG2b subclass switch variant (antibody)” registered a fold more mAb required for OD450 = 2.0 than with the IgG3 subclass above 15 fold.

As for “mAb F26G3 IgG2b subclass switch variant (antibody)”, the fold more mAb required for OD450 = 2.0 than with the IgG3 subclass is above 15 fold.

As for “mAb F26G3 IgG2a subclass switch variant (antibody)”, the fold more mAb required for OD450 = 2.0 than with the IgG3 subclass is above 15 fold.

In turn, “mAb F26G3 IgG1 subclass switch variant (antibody)” returned a fold more mAb required for OD450 = 2.0 than with the IgG3 subclass above 15 fold.
